Target: CD38 (human) (UniProt P28907)
Assay: cell-based or functional assay

What does the source list for daratumumab (antibody)?
daratumumab-induced fratricide of expanded NK cells (1 µg/mL daratumumab, 4 h, PI flow cytometry) (times lower (g-NK vs cNK)): 13; g-NK cell-mediated cytotoxicity against daratumumab-treated MM cell lines, correlation with CD38 expression: 0.92 R^2

Source: patent publication US20230190801A1
